According to publication PMC9482650, “Quantitative fragmentomics allow affinity mapping of interactomes” (Nature Communications, 2022):
Where a chain is given by its changes, count along the chain named.

T1: APBA2_2, Q99767
T1 sequence (Q99767 654-744, limits assumed, looked up): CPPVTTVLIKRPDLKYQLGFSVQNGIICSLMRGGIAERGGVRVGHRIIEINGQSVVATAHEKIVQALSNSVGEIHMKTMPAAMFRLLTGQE

T2: APBA3_1, O96018
T2 sequence (O96018 389-490, limits assumed, looked up): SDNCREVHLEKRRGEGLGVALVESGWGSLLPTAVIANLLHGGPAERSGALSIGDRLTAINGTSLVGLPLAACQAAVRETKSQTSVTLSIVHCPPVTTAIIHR

T3: GRIP1_4, Q9Y3R0
T3 sequence (Q9Y3R0 467-571, limits assumed, looked up): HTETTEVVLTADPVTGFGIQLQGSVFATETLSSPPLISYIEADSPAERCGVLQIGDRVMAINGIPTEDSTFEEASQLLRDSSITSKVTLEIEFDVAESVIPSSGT

T4: HTRA3, P83110
T4 sequence (P83110 354-453, limits assumed, looked up): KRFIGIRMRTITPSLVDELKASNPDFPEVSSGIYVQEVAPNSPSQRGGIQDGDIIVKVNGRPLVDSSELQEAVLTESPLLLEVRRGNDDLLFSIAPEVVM

T5: LIN7B, Q9HAP6
T5 sequence (Q9HAP6 88-185, limits assumed, looked up): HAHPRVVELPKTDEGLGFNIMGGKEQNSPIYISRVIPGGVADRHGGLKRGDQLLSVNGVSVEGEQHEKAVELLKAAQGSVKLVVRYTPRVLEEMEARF

T6: LIN7C, Q9NUP9
T6 sequence (Q9NUP9 88-185, limits assumed, looked up): T5 sequence (Q9HAP6 88-185, limits assumed, looked up) with A2S, D13E, V35I, V40I, Q65H, S79K, R89K, A96S

T7: MPDZ_5, O75970
T7 sequence (O75970 695-796, limits assumed, looked up): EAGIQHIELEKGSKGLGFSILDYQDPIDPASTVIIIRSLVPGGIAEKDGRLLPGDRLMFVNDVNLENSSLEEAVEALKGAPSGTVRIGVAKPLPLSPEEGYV

T8: NHERF3_3, Q5T2W1
T8 sequence (Q5T2W1 238-333, limits assumed, looked up): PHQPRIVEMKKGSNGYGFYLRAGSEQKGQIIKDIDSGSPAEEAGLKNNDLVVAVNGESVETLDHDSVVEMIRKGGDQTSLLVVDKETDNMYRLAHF

T9: PDZD7_3, Q9H5P4
T9 sequence (Q9H5P4 857-944, limits assumed, looked up): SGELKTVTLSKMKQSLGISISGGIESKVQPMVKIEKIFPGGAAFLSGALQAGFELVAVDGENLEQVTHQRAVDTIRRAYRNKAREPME

B1: BCR, P11274 (peptide)
chain: RQSILFSTEV
B2: GJD2, Q9UKL4 (peptide)
chain: RTQSSDSAYV

Target: AHNAK1, Q09666
Assay: holdup assay
Set-up: key: below the threshold = too weak to quantify, mostly under pKd 3.1 to 4
Settings: plain residues with an end cap or a label only (N-terminal biotin on a linker: ado-ado)

Sequence of AHNAK1, Q09666 (Q09666 4-100): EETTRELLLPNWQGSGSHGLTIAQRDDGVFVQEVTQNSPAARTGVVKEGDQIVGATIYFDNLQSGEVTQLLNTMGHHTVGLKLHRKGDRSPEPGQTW

Binder	pKd
B1	below the threshold
B2	below the threshold

Target: T1, APBA2_2, Q99767
Assay: holdup assay
Set-up: key: below the threshold = too weak to quantify, mostly under pKd 3.1 to 4
Settings: plain residues with an end cap or a label only (N-terminal biotin on a linker: ado-ado)

Binder	pKd
B1	below the threshold
B2	below the threshold

Target: T2, APBA3_1, O96018
Assay: holdup assay
Set-up: key: below the threshold = too weak to quantify, mostly under pKd 3.1 to 4
Settings: plain residues with an end cap or a label only (N-terminal biotin on a linker: ado-ado)

Binder	pKd
B1	below the threshold
B2	below the threshold

Target: ARHGEF12, Q9NZN5-2
Assay: holdup assay
Set-up: key: below the threshold = too weak to quantify, mostly under pKd 3.1 to 4
Settings: plain residues with an end cap or a label only (N-terminal biotin on a linker: ado-ado)

Sequence of ARHGEF12, Q9NZN5-2 (Q9NZN5 other isoform, or with tags, fused parts or gaps): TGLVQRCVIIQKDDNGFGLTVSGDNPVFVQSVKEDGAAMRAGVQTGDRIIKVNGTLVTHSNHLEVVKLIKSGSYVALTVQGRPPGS

Binder	pKd
B1	5.09
B2	4.35

Target: DLG1_1, Q12959
Assay: holdup assay
Set-up: key: below the threshold = too weak to quantify, mostly under pKd 3.1 to 4
Settings: plain residues with an end cap or a label only (N-terminal biotin on a linker: ado-ado)

Binder	pKd
B1	4.64
B2	below the threshold

Target: DLG2_2, Q15700
Assay: holdup assay
Set-up: key: below the threshold = too weak to quantify, mostly under pKd 3.1 to 4
Settings: plain residues with an end cap or a label only (N-terminal biotin on a linker: ado-ado)

Sequence of DLG2_2, Q15700 (Q15700 189-283): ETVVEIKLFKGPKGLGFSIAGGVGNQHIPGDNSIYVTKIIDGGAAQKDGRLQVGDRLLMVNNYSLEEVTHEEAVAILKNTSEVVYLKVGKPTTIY

Binder	pKd
B1	4.63
B2	below the threshold

Target: DLG4_2, P78352
Assay: holdup assay
Set-up: key: below the threshold = too weak to quantify, mostly under pKd 3.1 to 4
Settings: plain residues with an end cap or a label only (N-terminal biotin on a linker: ado-ado)

Sequence of DLG4_2, P78352 (P78352 155-259): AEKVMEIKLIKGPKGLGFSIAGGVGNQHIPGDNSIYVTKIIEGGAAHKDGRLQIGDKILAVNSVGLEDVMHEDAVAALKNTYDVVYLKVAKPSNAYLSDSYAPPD

Binder	pKd
B1	4.81
B2	3.65

Target: DLG4_3, P78352
Assay: holdup assay
Set-up: key: below the threshold = too weak to quantify, mostly under pKd 3.1 to 4
Settings: plain residues with an end cap or a label only (N-terminal biotin on a linker: ado-ado)

Sequence of DLG4_3, P78352 (P78352 306-403): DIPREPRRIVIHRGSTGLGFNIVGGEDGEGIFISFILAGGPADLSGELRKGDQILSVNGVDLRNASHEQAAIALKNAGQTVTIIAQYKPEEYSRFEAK

Binder	pKd
B1	3.7
B2	below the threshold

Target: FRMPD3, Q5JV73
Assay: holdup assay
Set-up: key: below the threshold = too weak to quantify, mostly under pKd 3.1 to 4
Settings: plain residues with an end cap or a label only (N-terminal biotin on a linker: ado-ado)

Sequence of FRMPD3, Q5JV73 (Q5JV73 12-100): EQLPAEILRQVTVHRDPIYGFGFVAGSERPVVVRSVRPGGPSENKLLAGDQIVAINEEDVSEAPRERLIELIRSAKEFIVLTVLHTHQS

Binder	pKd
B1	below the threshold
B2	3.65

Target: T3, GRIP1_4, Q9Y3R0
Assay: holdup assay
Set-up: key: below the threshold = too weak to quantify, mostly under pKd 3.1 to 4
Settings: plain residues with an end cap or a label only (N-terminal biotin on a linker: ado-ado)

Binder	pKd
B1	below the threshold
B2	below the threshold

Target: GRIP2_7, Q9C0E4
Assay: holdup assay
Set-up: key: below the threshold = too weak to quantify, mostly under pKd 3.1 to 4
Settings: plain residues with an end cap or a label only (N-terminal biotin on a linker: ado-ado)

Sequence of GRIP2_7, Q9C0E4 (Q9C0E4 934-1023): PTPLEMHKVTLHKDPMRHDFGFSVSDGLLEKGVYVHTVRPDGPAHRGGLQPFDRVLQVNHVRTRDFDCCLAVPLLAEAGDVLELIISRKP

Binder	pKd
B1	3.66
B2	below the threshold

Target: HTRA1, Q92743
Assay: holdup assay
Set-up: key: below the threshold = too weak to quantify, mostly under pKd 3.1 to 4
Settings: plain residues with an end cap or a label only (N-terminal biotin on a linker: ado-ado)

Sequence of HTRA1, Q92743 (Q92743 360-477): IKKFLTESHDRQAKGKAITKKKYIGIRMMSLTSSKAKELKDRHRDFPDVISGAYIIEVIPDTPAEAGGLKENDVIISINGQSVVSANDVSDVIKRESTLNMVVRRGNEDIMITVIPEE

Binder	pKd
B1	4.47
B2	4.6

Target: T4, HTRA3, P83110
Assay: holdup assay
Set-up: key: below the threshold = too weak to quantify, mostly under pKd 3.1 to 4
Settings: plain residues with an end cap or a label only (N-terminal biotin on a linker: ado-ado)

Binder	pKd
B1	3.63
B2	4.68

Target: IL16_1, Q14005
Assay: holdup assay
Set-up: key: below the threshold = too weak to quantify, mostly under pKd 3.1 to 4
Settings: plain residues with an end cap or a label only (N-terminal biotin on a linker: ado-ado)

Sequence of IL16_1, Q14005 (Q14005 210-306): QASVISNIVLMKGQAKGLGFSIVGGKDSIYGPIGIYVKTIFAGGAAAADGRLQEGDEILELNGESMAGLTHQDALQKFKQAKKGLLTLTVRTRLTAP

Binder	pKd
B1	3.85
B2	below the threshold

Target: IL16_4, Q14005
Assay: holdup assay
Set-up: key: below the threshold = too weak to quantify, mostly under pKd 3.1 to 4
Settings: plain residues with an end cap or a label only (N-terminal biotin on a linker: ado-ado)

Sequence of IL16_4, Q14005 (Q14005 1229-1329): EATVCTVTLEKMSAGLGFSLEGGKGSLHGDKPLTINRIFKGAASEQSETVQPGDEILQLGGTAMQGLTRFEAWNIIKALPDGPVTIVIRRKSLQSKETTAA

Binder	pKd
B1	3.54
B2	below the threshold

Target: Inadl_10, Q8NI35
Assay: holdup assay
Set-up: key: below the threshold = too weak to quantify, mostly under pKd 3.1 to 4
Settings: plain residues with an end cap or a label only (N-terminal biotin on a linker: ado-ado)

Sequence of Inadl_10, Q8NI35 (Q8NI35 1673-1763): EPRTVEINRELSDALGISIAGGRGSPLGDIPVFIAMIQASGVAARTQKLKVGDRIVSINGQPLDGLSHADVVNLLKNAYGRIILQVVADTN

Binder	pKd
B1	4.32
B2	below the threshold

Target: Inadl_5, Q8NI35
Assay: holdup assay
Set-up: key: below the threshold = too weak to quantify, mostly under pKd 3.1 to 4
Settings: plain residues with an end cap or a label only (N-terminal biotin on a linker: ado-ado)

Sequence of Inadl_5, Q8NI35 (Q8NI35 673-780): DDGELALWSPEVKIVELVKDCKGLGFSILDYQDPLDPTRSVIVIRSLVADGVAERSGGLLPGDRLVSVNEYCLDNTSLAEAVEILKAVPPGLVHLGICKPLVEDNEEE

Binder	pKd
B1	3.49
B2	3.5

Target: LAP2, Q96RT1
Assay: holdup assay
Set-up: key: below the threshold = too weak to quantify, mostly under pKd 3.1 to 4
Settings: plain residues with an end cap or a label only (N-terminal biotin on a linker: ado-ado)

Sequence of LAP2, Q96RT1 (Q96RT1 other isoform, or with tags, fused parts or gaps): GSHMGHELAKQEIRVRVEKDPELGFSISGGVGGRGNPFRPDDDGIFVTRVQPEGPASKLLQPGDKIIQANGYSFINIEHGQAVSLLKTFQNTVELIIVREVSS

Binder	pKd
B1	4.39
B2	below the threshold

Target: LDB3, O75112
Assay: holdup assay
Set-up: key: below the threshold = too weak to quantify, mostly under pKd 3.1 to 4
Settings: plain residues with an end cap or a label only (N-terminal biotin on a linker: ado-ado)

Sequence of LDB3, O75112 (O75112 1-94): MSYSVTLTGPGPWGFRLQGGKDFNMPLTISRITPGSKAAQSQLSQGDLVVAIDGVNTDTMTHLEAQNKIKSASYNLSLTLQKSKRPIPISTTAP

Binder	pKd
B1	below the threshold
B2	below the threshold

Target: T5, LIN7B, Q9HAP6
Assay: holdup assay
Set-up: key: below the threshold = too weak to quantify, mostly under pKd 3.1 to 4
Settings: plain residues with an end cap or a label only (N-terminal biotin on a linker: ado-ado)

Binder	pKd
B1	below the threshold
B2	below the threshold

Target: T6, LIN7C, Q9NUP9
Assay: holdup assay
Set-up: key: below the threshold = too weak to quantify, mostly under pKd 3.1 to 4
Settings: plain residues with an end cap or a label only (N-terminal biotin on a linker: ado-ado)

Binder	pKd
B1	3.63
B2	below the threshold

Target: LNX1_3, Q8TBB1
Assay: holdup assay
Set-up: key: below the threshold = too weak to quantify, mostly under pKd 3.1 to 4
Settings: plain residues with an end cap or a label only (N-terminal biotin on a linker: ado-ado)

Sequence of LNX1_3, Q8TBB1 (Q8TBB1 500-596): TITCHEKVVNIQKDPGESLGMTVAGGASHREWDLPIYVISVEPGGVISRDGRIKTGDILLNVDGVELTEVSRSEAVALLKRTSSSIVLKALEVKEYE

Binder	pKd
B1	3.64
B2	3.47

Target: MAGI2_3, Q86UL8
Assay: holdup assay
Set-up: key: below the threshold = too weak to quantify, mostly under pKd 3.1 to 4
Settings: plain residues with an end cap or a label only (N-terminal biotin on a linker: ado-ado)

Sequence of MAGI2_3, Q86UL8 (Q86UL8 600-682): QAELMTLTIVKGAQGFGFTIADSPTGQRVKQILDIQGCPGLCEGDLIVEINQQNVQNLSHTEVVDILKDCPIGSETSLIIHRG

Binder	pKd
B1	below the threshold
B2	below the threshold

Target: MAGI2_4, Q86UL8
Assay: holdup assay
Set-up: key: below the threshold = too weak to quantify, mostly under pKd 3.1 to 4
Settings: plain residues with an end cap or a label only (N-terminal biotin on a linker: ado-ado)

Sequence of MAGI2_4, Q86UL8 (Q86UL8 772-865): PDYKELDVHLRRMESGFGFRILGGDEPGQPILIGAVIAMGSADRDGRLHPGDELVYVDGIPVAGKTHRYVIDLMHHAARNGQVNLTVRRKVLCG

Binder	pKd
B1	4.88
B2	below the threshold

Target: T7, MPDZ_5, O75970
Assay: holdup assay
Set-up: key: below the threshold = too weak to quantify, mostly under pKd 3.1 to 4
Settings: plain residues with an end cap or a label only (N-terminal biotin on a linker: ado-ado)

Binder	pKd
B1	below the threshold
B2	below the threshold

Target: T8, NHERF3_3, Q5T2W1
Assay: holdup assay
Set-up: key: below the threshold = too weak to quantify, mostly under pKd 3.1 to 4
Settings: plain residues with an end cap or a label only (N-terminal biotin on a linker: ado-ado)

Binder	pKd
B1	below the threshold
B2	below the threshold

Target: PDLIM1, O00151
Assay: holdup assay
Set-up: key: below the threshold = too weak to quantify, mostly under pKd 3.1 to 4
Settings: plain residues with an end cap or a label only (N-terminal biotin on a linker: ado-ado)

Sequence of PDLIM1, O00151 (O00151 1-87): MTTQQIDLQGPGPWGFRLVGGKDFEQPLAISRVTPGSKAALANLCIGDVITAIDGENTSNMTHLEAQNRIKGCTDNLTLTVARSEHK

Binder	pKd
B1	below the threshold
B2	below the threshold

Target: T9, PDZD7_3, Q9H5P4
Assay: holdup assay
Set-up: key: below the threshold = too weak to quantify, mostly under pKd 3.1 to 4
Settings: plain residues with an end cap or a label only (N-terminal biotin on a linker: ado-ado)

Binder	pKd
B1	4.85
B2	below the threshold

Target: PDZRN4_1, Q6ZMN7
Assay: holdup assay
Set-up: key: below the threshold = too weak to quantify, mostly under pKd 3.1 to 4
Settings: plain residues with an end cap or a label only (N-terminal biotin on a linker: ado-ado)

Sequence of PDZRN4_1, Q6ZMN7 (Q6ZMN7 213-318): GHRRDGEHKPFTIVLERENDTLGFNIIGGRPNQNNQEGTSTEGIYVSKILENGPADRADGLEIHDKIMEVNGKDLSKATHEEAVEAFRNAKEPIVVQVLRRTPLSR

Binder	pKd
B1	3.78
B2	below the threshold
